Target: T1, YscUCC, C-terminal polypeptide of the cleaved cytosolic domain YscUC of YscU, wild type (Y. pseudotuberculosis, UniProt P69987 264-354)
T1 sequence: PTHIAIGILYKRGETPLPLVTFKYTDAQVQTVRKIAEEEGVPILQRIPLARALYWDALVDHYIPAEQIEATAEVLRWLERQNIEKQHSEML
Assay: circular dichroism, dissociation kinetics
Conditions: both partners purified

B1: YscUCN, N-terminal cytoplasmic polypeptide of the cleaved cytosolic domain YscUC of YscU (domain or fragment)
chain: IKELKMSKDEIKREYKEMEGSPEIKSKRRQFHQEIQSRNMRENVKRSSVVVAN
- binding result: binds
